Assay: soluble fraction after stress (log2 fold change); higher = more stays soluble; pooled small domains, quantitative proteomics
Conditions: stress: pH 4
How it was run: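 Values are on a log2 scale, where higher means more of the domain stayed soluble after pH 4 stress. They are fold changes in the soluble amount of each domain from pooled custom libraries, measured by high-throughput quantitative proteomics. The fold change is taken to reflect aggregation propensity.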

Sequence	soluble fraction (log2)
HMAAAQILRAAVLRVPAEETMRFVTETPELRRYLGASLGPTAAIVRPGQEQNLAAALQSHGILVEFDE	0.106
HMAADLIGLEARVTLPLTEDQRGFIETSVRGSLVRRAALSASGRLDRGQRVVILRSEGTTLIVDAL	-0.372
HMAADRRKAERPLIDGQAVMDRFEVGPGPMVGKALKFLLALKRAEPDLDLAGTEERLDAWWNEQL	0.289
HMAAEFERKNGIVYFFHSSEKPHLNYPHVHARYGEDTISISLRDFTVIGSFSSKKKQKEAVEYVKNK	-0.352
HMAAEPDQQLIKPASDPVLRTMKIEELMKMSEQVKIQMSKAAKNFDYLEAARLRDEHFALENLIKLRS	0.156
HMAAGELSGEALIALIERHPMALSALATTFGHSESDLRAFVEPLARQGRLRLFESQGTLFVGGIG	0.00392
HMAAHHIILEEREQLSVSGVEEVESFDENTIVMLTNRGTLIVRGEELHIEKLSLDGGDLRVEGSIDSLTYE	-1.09
HMAAHWANFLEALRAGRARRVLVARGVEGWLLKELERLGAPYTLVPRIELDTLLRTTHHQGIAAEVE	-0.748
HMAAPELLTVRERQVAALISDGLSNQQIAHRLHLEVTTVKAHIGSIFNRLDMNNRVQIAIWAHDRQLVFS	0.0815
HMAAQDIILKRNAEQIEAIVKEITDTDVKYRKFTNTEGVTYSIRRSEVFSITYENGTMDLFA	0.206
HMAAQDLIVKTDASQVEARVLEISPDAVRYKRFSNPDGPTYVLPVAEIRYIRYANGEVEYYA	-0.207
HMAAQLAHVPAVTGRPLAEAQRILADNRLNAQVTQQPVAEPKLDGVVIAQKITEGTRTMRGATVPLIVGKY	0.148
HMAASGTVNSGGDPLRVRADPNTSSQILTKLSDGTQVEVLEQAENGWYKIAHEGISGFVSGEYLVVH	-0.356
HMAAVAPPVLERIASDLATRFAGTLSPETVDRYVRESYHLLAERAGITRYLPSLTARFAGDRLDA	-0.208
HMAAVEDLPVKSVNGKKYHYYTVQPKESLYSLSHKLGISRQEIIKYNPGVEDGLKAYEDLLFPYTPK	-0.419
HMAAVSTDEEFAALGIPAEWIPVLKSNGFQTVESLKKVAPGALFNQLGGLRKKNKLEIAMPSLDQVKAWLA	-0.278
HMADDFISTLFSEGIIIDTEVKQFAERQGSPLQFVRHIASNLPEPRDIITMGEVRSVMREGA	-1.04
HMADEEEIMVPQVVGKTYDEAKSELENAGFKVEKNEKTSDKASGTVISQSINGGAKKGTSVTLTVSKGN	0.132
HMADFYEVLGVERNASSDQIKRAYRKLARELHPDVNLDPVAQNRFKEVTEAYEVLSDPNKRSNFDRG	-0.0615
HMADGEWAEMQRQLTAAGLLVVGRAAQERIQRLSDISPLIEAAQRSNVVMLSERTVDEVLTLVPT	-0.468
HMADGTSIYAEREVLYVTSPTANTAKVYNVSGALVRTMTLSAGQTVRTALPAGFYVVALGNGNTHKVIV	0.0275
HMADKSLLELPGLDGDKVSALVTAGVRNVNDLADLATDELVEKTGFDEKTAADLIIAARAVVY	-0.283
HMADLNQTDIDSITKSVGGVEQYKSLMDWAGKTLSQDAIDSFDDLVNTGNKGSIQLAVNGLVAQYQNDN	0.121
HMADMKIHLRPYAHDTNRWHVDIRLMHPTAATEIRKRLVAPAGLSEAQARAWGERQVPTILGKALGVI	-0.042
HMADNILPAQTDAIKALATENGFSNESLEKYLIENYGTTIYGLSRNQGIQIINLFQSENPPKP	-0.207
HMADQIIEGILGKEGGYVNNPNDKGGPTRWGITQTTARAYGYSGDMKALPRDTAKAIYLSQYWT	-0.218

Sequence	soluble fraction (log2)
HMADTPQAYIRQMVQEAGADGIMLSTITDRLRARFKDFKVRDLGYAQMRQYMASTGTYDLEKSGRNFRVHL	0.181
HMADTSLDHLGVLVRHASDVDAWAEFFENRGVTLASQPRTHRDGARSFYVDDPDGNRVQVIYHPPI	-0.81
HMADWTETELAALRRAYASGTTRVSYDGKSVDYGSAEDLLSRIRTLQGAASDVAADAVAAVDA	-0.153
HMADYSMDDNAWNAKKADIDEWFEANPDFSANKAITDGLFSIGDSQVEMRKRYWASIAGVFAGLPNSPIG	-1.78
HMAEANTEADFVAIGVRAELLPILQKLGVHTIEQLKGIKATKLFNDIPGMRKKLKLDAVQNPTLQEIEGWL	-0.393
HMAEAPGSVELLAERLRPWWEIHGGEWGSKTKALRFLFGDQAPVAGSYWRALEAAIAQIESTT	-0.108
HMAEKNALWEEDAVYAADSSALARDGYDAIVRTDKGGKKGYLVVGTGGRERFMPLQTLVMLGYLKK	-0.0478
HMAEKRTAIITTARADIRQKPEATAPLAFEAVKDVVLELTDKPADGWVRVKHRDGSTGYIRINQI	-0.132
HMAELAKAKLDAAVQVALLKAGALDTDYLAYKLQGMDGVALDDKGSLTGWDTTLETLKSQYPTQFA	-0.388
HMAEPTLNERLREALSDPAKLKIAKAIKAKYPIITARDIDTFLNMHEKDIENGADPMDEFEEFFHANY	-0.132
HMAEPYDEDKVMEHLYIKGKDVVIAHLKHLKEHNEHVWLKKGVEWMQKNQDRLGFDMMEVIYVVHNH	-1.18
HMAEQEELDAIRPDLDGQEIMDILGIKPGREVGAARNFLLELRLDEGPLGYDEAVSRLLTWWAERT	-1.2
HMAETLLWADAAQEGLNRIVAAQPILVRISAAKRLRDASEQAAKAAGVSTVEIGHVQHASESLQFGDA	-0.0823
HMAETLRLVGATNLNTLARARHPDDLAARNEFRRAIAQANPALFAGKSKVGSVSLPAGTVLALPPEV	≥ 0.43
HMAEVDDESIKLYDGGYQSNTTKSRLNALLSEFGYDTEHVFQKQFEWFISIFDLTEKAMRTVPFSNGMRL	-0.257
HMAEVGDFTLAELIKVLFNEAGVLKAPVELRNDNTGGLQYRVGAYTDSETGWETIASIADLKGA	-1.74
HMAEWLLVQLTNGNWFYGEVIEKTDATIVLNTDILGKVSIQKLDIRRSISGPLTAAKRQEIEDSERAKD	-0.341
HMAFDDAHYKDMITSYLKKFKKGNRSEIENLIIPKLSEVLVEKQKKDKVKNLLQALRKDNQIRLKGKYWYL	0.196
HMAFIEADIGKRIKSLRNKKRITLESLAAETGFTKGYLSKVETSEKAPPVSTLGSIARALGVSISTLLGE	0.144
HMAFKDDDVQKAYDRYMDRYGELSVLYSDNGLKVDDDLFYKNNIPPNGKFTKEFFDELYELVNMEFINNY	-0.538
HMAFRLPNGYGTIRRLTGNRRKPYVALVNPTQVFDDEKGTSHYKYDLLGTFAEKIDAYNAVMQYHKSPGGL	-0.223
HMAGAPANLAARLREQILQGAYHDGQRLPAERHLAAEHGVSRGTVREALRLLEQGALLTRKRGSGSYVTYP	0.006
HMAGDVVVEVVGKVRDPQVVTLPKGSRVQDALEAAGGVKPGVNTTDQNLARLLVDGEQIRIGLSS	0.0302
HMAGFGDSLEKMSDAVEALKLLMSTEDARNDQNIQKIARELKDVFNKYRTHLRKSYPDQYDRIKSTL	-0.62
HMAGGNHPTRLELLDSAAHIAERDGTSALTVDAITKSAGHAKGTFYIHFDDRADLLVEMHRR	-0.323
HMAGIPIHMSQLKQIILLLSQGYPIKGIARETGVSRNTIKGYLQTLTSQDLNVTDALKLENIQLEYLLRSP	-0.239

Sequence	soluble fraction (log2)
HMAGLYSLLLVELPMERLPEDLPAIKAAWLKTGDTEAFKVALQAMSSRGWTIAVPGKHRDTQMTQL	-0.235
HMAGPVLTPEEAEVLRILADHGEMTVDNISAEGKMSAAVVLRGLGVLSAYGLVAPGGPGRWRSE	0.00808
HMAGTDLSERESEIAMLLLKGYPYKLIASRLYISESTVKSHVQNIYGKLGIHSRTELIEQFSAS	-0.966
HMAGTPAIVKWFNPTKGFGFVTPKEAGSDALLHASVLAKRGKRWLQEGTLVEVLIEEGPKGLVVSELLTIE	-0.659
HMAGTRRFELVEGSSSKFWEVTVADGSYTVTYGRIGTAGGSKTTESATAEADAEKLVREKLKKGYQEAGAA	0.128
HMAGTRVWSENGQLYVTAAVSGRANVYNVLGKLNRSLTFSAGETKSVSVPAGIYVVSLNNGKAYKVAV	0.0936
HMAGWIPVEERLPDDLTNPITRDAYVYPVTVDLGDVTDIRYYSFWRGHWYNQGPETMDDLVIAWMLLPEPY	-0.178
HMAHESYVKEQLLLSLTNHEDPIMQISLIEQLTKMHERNIIHELEKLTVDVQTNEEVKVQAYASLLILS	-0.962
HMAHKYYSIMRPVSIGTFPDNGTILGIVNFDTRQMVESIGKMAWGYINYGKPLTEKQISDYELVAE	0.361
HMAHLNYQTVDINALIRHSLQLVSQDAQSRGIALQFTPRPELTTISADPDRLNQVLLNLYLNAMQD	-0.205
HMAHLSPNDAARLVGVSRPLLNQILDEGRITFFETAGGHRKIKLAAVLAYIKERDEVAAQLAAART	-0.514
HMAHSDEAWSVARRVARELDKILDGAGPRRTALVRAAAELRLSTRQIYNLLARYRADRTVTSLLPRR	-0.353
HMAHSWEAIRVKLQQIIDEEDKTKPLNDDQIKEKLAEAGIPNLARRTVAKYRKLLNIPTARFRKR	0.208
HMAIDINKIYSEIKKKIPNQDNHIKEILSIIWRDFNNYQNIKSRSILINGEKSSPKKEIFNIIEDNINIPV	0.00852
HMAIDPLLDKGYEQYDKGEFTEAVKSFNRAIEIDPKNAEAHFLRAMTYQGLALSKLAVADLEKAIV	-0.127
HMAIGDYYINASALNVRSGEGTNYRIIGALPQGQKVQVISENSGWSKINYNGQTGYIGTRYLSKTPV	0.22
HMAIHTSVTEHGEHDLTVRMEMEQVFAIEMAVVSHEQATMLERTFKANAEAIYQKLLGVMTQEYP	-0.841
HMAISEEEATNLALERVPGASAQDLRIQLEFDDGVQKYEGDIIYDGKEYDFEIDANTGTFLEWSE	0.22
HMAISSADRIVAELRTWISGASPGTQLPSSRTLAARYGASPVTVQKALHTLAGMGLVEARPGAGTFVRRQS	≥ 0.43
HMAITVPEGATLSDAAVLLKQAGAVRSADAFLTRAKVFGGSTPIKAGEFVIPVQASNKDILAILQGGK	-0.193
HMAKIATTVYEQIRTAILNGELSNSERLVEEDLAVSMGISRTPVREALRRLAAEGLVDVSPNRGARVAE	-0.778
HMAKINFTSDAIDIGMVTRNDIEMLSFYQNVLGLTKDMEIPFPGLGVVNKLSFGSGFIKILVL	-0.272
HMAKLGITQREQEVLQLLVTGKTYKEIAAELFISLPTVKTHVSNIYSKAKVRNRLELSNLINYI	-1.22
HMAKNYYEILGLKSDATLPEIKKAFKKLSKKFHPDKNRDDDGYFESMFKSINEAYQVLIDEDKRATFDSHH	0.166

— the domain aggregation screens of Martell et al. (2025)
